Source: article PMC4390240 (PLoS ONE, 2015)
Values joined by “and” are separate entries in the source; they are usually repeats but may differ in a detail not shown here. Equal values may be shown once.

What was measured:
[1] = target: the molecule itself; experiment: differential scanning calorimetry; oxidized dimer, 100 μM (heme unit), scan rate 1°C/min, 50 mM potassium phosphate buffer, pH 7.0; dimer to monomers
[2] = target: the molecule itself; experiment: SEC; gel chromatography (Superdex 75) at 4°C in 50 mM potassium phosphate buffer, pH 7.0, after addition of 80% (v/v) ethanol to 1 mM oxidized monomeric protein, lyophilization and resolvation with buffer

B1: Pseudomonas aeruginosa cytochrome c 551, wild type (natural protein, UniProt P00099 23-104, looked up)
chain: EDPEVLFKNKGCVACHAIDTKMVGPAYKDVAAKFAGQAGAEAELAQRIKNGSQGVWGPIPMPPNAVSDDEAQTLAKWVLSQK
modifications: heme attached covalently to two Cys residues (heme-linked Cys12 and Cys15); His16 and Met61 coordinated to the heme iron; oxidized
notes: residues printed from Glu1; source: E. coli JCB387, purified (oxidized)
[1]
  dH of dissociation of the dimer to monomers: ~0 kcal/mol
[2]
  stoichiometry N: 2 and 3 and 4
